We go through 1 molecule from article PMC11182496, “Dissecting positive selection events and immunological drives during the evolution of adeno-associated virus lineages” (PLOS Pathogens, 2024).

Experiment [1] addresses AAV2-G548 capsid (adeno-associated virus 2).
For experiment [2], the target named is AAV2-E548 capsid (wild-type AAV2 capsid) (Adeno-associated virus 2, wild type …, UniProt P03135). Briefly: cell-based or functional assay.
Experiment [3] addresses AAV2-G548 capsid (adeno-associated virus 2). Briefly: ELISA; plates coated with 10^9 vector genomes of AAV variants in 0.1 M sodium bicarbonate buffer pH 9.6 overnight at 4°C; antibody serially diluted in PBS with 1% BSA, 37°C for 1.5 hours; anti-mouse IgG-HRP, OD450; EC50 from a sigmoidal fit. Background: In an ELISA, binding on a coated surface is turned into a signal by an enzyme label.

Sequence of AAV2-E548 capsid (wild-type AAV2 capsid) (P03135 whole entry, looked up, the tested form may be a part): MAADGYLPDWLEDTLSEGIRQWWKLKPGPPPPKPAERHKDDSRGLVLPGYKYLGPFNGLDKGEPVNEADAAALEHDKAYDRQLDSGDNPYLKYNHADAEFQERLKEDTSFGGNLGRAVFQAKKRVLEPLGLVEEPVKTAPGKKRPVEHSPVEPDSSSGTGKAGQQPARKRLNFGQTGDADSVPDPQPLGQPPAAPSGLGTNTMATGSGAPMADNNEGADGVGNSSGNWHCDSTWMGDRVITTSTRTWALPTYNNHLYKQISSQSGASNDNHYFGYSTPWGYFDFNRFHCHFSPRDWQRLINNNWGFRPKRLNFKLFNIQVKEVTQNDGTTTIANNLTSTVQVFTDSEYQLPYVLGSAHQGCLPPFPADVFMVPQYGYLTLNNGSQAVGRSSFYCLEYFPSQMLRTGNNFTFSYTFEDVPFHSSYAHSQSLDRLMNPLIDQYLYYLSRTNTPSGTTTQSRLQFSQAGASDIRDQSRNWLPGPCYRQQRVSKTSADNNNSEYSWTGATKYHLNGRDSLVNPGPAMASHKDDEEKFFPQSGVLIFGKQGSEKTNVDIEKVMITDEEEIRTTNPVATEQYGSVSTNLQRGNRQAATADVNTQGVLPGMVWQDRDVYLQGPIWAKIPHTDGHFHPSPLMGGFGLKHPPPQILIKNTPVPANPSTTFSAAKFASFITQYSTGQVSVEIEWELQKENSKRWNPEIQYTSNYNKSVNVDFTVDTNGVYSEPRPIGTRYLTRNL

B1: mouse monoclonal antibody A20 (antibody, V domains shown)
VH: DVQLQESGPDLVKPSQSLSLTCTVTGYSITSGYTWHWIRQFPGNKQEWMGYIHFSGYTNYNPSLKSRVSITRDTSKNQFFLHLNSVTTEDTATYYCARGDYGYEWFTYWGQGTLVTVSA
VL: DIQMTQSSSSFSVSLGDRVTITCKASEDIHNRLAWYKQKPGNAPRLLISGATSLETGVPSRFSGSGSGKDYTLSITSLQNEDVATYYCQQYWIGPFTFGSGTNLEIK
Consider B1, for which the neutralization of the lacZ AAV vector's transduction of 293 cells (β-galactosidase assay), average IC50 turned out to be 0.201 µg/mL in experiment [1] and 0.2 µg/mL in experiment [2]. The molecule further showed an OD450 at the highest A20 concentration (10 μg/ml) in experiment [3] of 0.132 OD450.
